# Measurements as given in patent publication US10220090B2, “BCMA Antigen binding proteins” (Amgen Inc., priority 2012, dated 2019).
# B1: Ab-6: anti-huBCMA mAb, Vh SEQ ID NO:216, Vl SEQ ID NO:250 (antibody, V domains shown)
# VH: QVQLVESGGGVVQPGRSLRLSCAASGFTFSSYGLHWVRQAPGKGLEWVALISYDGSNKYYADSVKGRFTISRDNSKNTLYLQMNSLRAEDTAVYYCWYSSSWTPLDYWGQGTLVTVSS
# VL: DIQMTQSPSSLSASVGDRVTITCRASQGIRNDLGWYQQKPGKAPKRLIYAASSLQSGVPSRFSGSGSGTEFTLTISSLQPEDFATYYCLQYYSYPLTFGGGTKVEIKR
# B2: Ab-8: anti-huBCMA mAb of the second campaign, Vh SEQ ID NO:220, Vl SEQ ID NO:254 (antibody, V domains shown)
# VH: EVQLLESGGALVQPGGSLRLSCAASGFTFSSYAMNWVRQAPGKGLEWVSAISVGGDTYYADSVKGRFTISRDNSKNTLYLQMNSLRAEDTAVYYCAKDQVTMVRGVWYYYGLDVWGQGTTVTVSS
# VL: DIVMIQSPLSLPVTPGEPASISCRSSQSLLHSNGNNYLDWYLQKPGQSPHLLISLGSNRTSGVPDRFSGSGSGTDFTLKISRVEAEDVGVYYCMQALQPPRRFGQGTKLEIKR
# Key:
# TACI = biological target: T1, TACI (Homo sapiens, UniProt O14836); assay: FACS binding on cells transiently transfected to express full length TACI
# T1 construct: expressed in transfected cells
# T1 sequence (O14836 1-293): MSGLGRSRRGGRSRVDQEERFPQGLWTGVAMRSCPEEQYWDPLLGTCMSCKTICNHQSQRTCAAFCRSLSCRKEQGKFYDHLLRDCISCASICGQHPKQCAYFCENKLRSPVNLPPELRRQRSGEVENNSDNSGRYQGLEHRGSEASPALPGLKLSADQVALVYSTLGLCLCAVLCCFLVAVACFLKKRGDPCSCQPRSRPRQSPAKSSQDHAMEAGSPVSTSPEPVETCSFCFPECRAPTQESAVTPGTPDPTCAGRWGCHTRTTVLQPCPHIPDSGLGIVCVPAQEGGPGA
# Experimental: (§1) An important criterion is exquisite selectivity for wild-type human BCMA expressed on the surface of cells. FACS binding on cells transiently transfected to express full length BCMA, TACI, or BAFF-R was performed using standard techniques. Approximately 40×10^6 of the transiently-transfected target cells were resuspended in a staining solution (2% goat serum, 1% rabbit serum, 0.02% azide in PBS) and aliquoted into round-bottom, 96-well plate (Corning Incorp., Acton, Mass.) as per the experiment design. The cells were incubated at 4 degrees celsius for 30 minutes to block non-specific sites. The antibodies were titrated into the staining solution. The cells were rinsed in a rinse solution (PBS+0.02% azide) by resuspending the cells in 200 ul/well. The cells were centrifuged at 1500 rpm at 4 degrees celsius for 7 minutes. The rinse solution was removed and the rinse step was repeated. The cells were resuspended in the appropriate antibody solution (see the matrix in TABLE 4) at 30 ul/well and incubated at 4 degrees celsius for 30 minutes. […] For the mouse IgG1 negative control and the two mouse antibodies (1.183 and 1.288), the secondary reagent was an anti-mouse IgG-PE conjugate (BD Pharmingen Cat. 550589). The cells/antibodies were rinsed as described above to remove excess/unbound antibody. […] Samples were read at 532 nm wavelength on FACS. […]
# human BCMA = biological target: T2, human BCMA (Homo sapiens, UniProt Q02223, N81S); assay: FACS binding on cells transiently transfected to express full length BCMA
# T2 construct: expressed in transfected cells
# T2 sequence (Q02223 1-184 N81S): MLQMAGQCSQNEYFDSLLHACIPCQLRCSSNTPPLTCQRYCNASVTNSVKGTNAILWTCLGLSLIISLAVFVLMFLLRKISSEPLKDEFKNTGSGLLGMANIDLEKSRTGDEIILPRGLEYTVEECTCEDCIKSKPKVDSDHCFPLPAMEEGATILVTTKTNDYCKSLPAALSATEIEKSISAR
# Experimental: as §1
# [1] = biological target: [6xHistidine-SUMO]-huBCMA (SEQ ID NO:350) and its carboxy terminal clipped forms (Homo sapiens, UniProt Q02223); assay: Size exclusion chromatography and LC/MS of antibody complexes with Sumo-huBCMA and clipped forms; type: binding; details: SEC and LC/MS; listed as 29C12
# Text: To determine which forms of 6×His-SUMO-huBCMA were bound to the anti-huBCMA antibodies, the SEC fractions were isolated and analyzed. Carboxy-terminus fragments of the extracellular domain of human BCMA were generated as clipped forms from the rhuBCMA fusion protein (6×His::Sumo::huBCMA(aa 5-51)::GGS::G3::Avi) of SEQ ID NO:350, as shown in FIG. 45.
# A Superdex 200™ 10/30 cm SEC column (GE Healthcare Life Sciences) was used according to the manufacturer's recommendations and run in phosphate buffered saline (PBS). Incubations of antibody with excess levels of sumoBCMA were performed at room temperature for at least 30 minutes.
# (§2) A Superdex 200™ 10/30 cm SEC column (GE Healthcare Life Sciences) was used according to the manufacturer's recommended condision and run in phosphate buffered saline (PBS). Incubations of antibody with excess levels of sumoBCMA were performed at room temperature for at least 30 minutes.
# 5 ug of total proteins were reduced in 50 mM Tris/4 M guanidine/9 mM DTT, pH 8.0 at 55° C. for 15 min, and analyzed in Agilent LCTOF system using a Vydac C8 column, 2.1 mm ID×150 mm, […] particle size. […] TOF MS conditions included capillary voltage of 4000 V, drying gas flow at 10 L/min, dry gas temperature at 300° C., nebulizer gas flow at 40 L/min, and fragmentor voltage of 300 V. MS data was analyzed in Agilent MassHunter™ Qualitative Analysis program.
# [2] = biological target: T3, Sumo (cleaved from SumoBCMA) (Saccharomyces cerevisiae, UniProt Q12306); assay: Size exclusion chromatography control with Sumo; type: binding; details: SEC control
# T3 construct: 6xHis (N)
# Experimental: as §2
# [6xHistidine-SUMO]-huBCMA (SEQ ID NO:350) and its carboxy terminal clipped forms, sequence (Q02223 with tags, fused parts or gaps limits assumed): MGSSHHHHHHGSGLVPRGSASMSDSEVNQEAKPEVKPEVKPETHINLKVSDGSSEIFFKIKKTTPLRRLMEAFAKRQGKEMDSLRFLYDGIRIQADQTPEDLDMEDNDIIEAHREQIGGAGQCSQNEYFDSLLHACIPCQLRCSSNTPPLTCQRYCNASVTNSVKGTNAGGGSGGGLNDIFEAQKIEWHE
# T3 sequence (Q12306 1-98 limits assumed): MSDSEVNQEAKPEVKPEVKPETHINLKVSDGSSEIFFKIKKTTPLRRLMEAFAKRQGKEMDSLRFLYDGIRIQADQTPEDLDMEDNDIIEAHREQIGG
Molecule,TACI (FACS binding) (TACI),BCMA (FACS binding) (human BCMA),binding to full-length and truncated fragments of human BCMA [1],binding to Sumo [2]
B1,+ (A sample was considered positive for binding if the MFI was two times the negative control value),+ (A sample was considered positive for binding if the MFI was two times the negative control value),,
B2,,,bound full-length and truncated forms of BCMA,did not bind to Sumo
